Measurements reported in patent US12379386B2, “Antibodies to 25-hydroxyvitamin D2 and D3 for detecting total 25-hydroxyvitamin D” (Siemens Healthcare Diagnostics Inc., priority 2011, dated 2025).

Experiments:
Assay type in all cases: binding
[1] = Antibody displacement assay, 10H9 supernatant, competitor 25-hydroxyvitamin D2; details: for optical density at 450 nm: 25 OH-D2 0.4 μg/mL, coat Vit D C22-Diaminobutane-Suberoyl-KLH 50 ng/mL
Description: (§1) Following isolation of hybridoma clones, studies were conducted to determine the relative ability of the antibodies to bind to both 25-hydroxyvitamin D2 and 25-hydroxyvitamin D3. To assess this, antibody displacement assays were conducted to determine the degree to which binding between vitamin D-C22 BSA and a reactive antibody raised against the antigen (10H9) could be disrupted by the presence of 25-hydroxyvitamin D2 or 25-hydroxyvitamin D3. Cell culture supernatant from the 10H9 hybridoma cell lines producing antibodies reactive to vitamin D-C22 BSA were coincubated in the presence or absence of 25-hydroxyvitamin D2 or 25-hydroxyvitamin D3 on microtiter plates coated with vitamin D-C22 KLH for 1 hour. After washing the plates, goat anti-mouse IgG-HRPO was added and incubated for 30 minutes. Plates were washed and then incubated with tetramethyl benzidine (TMB). The generated color was stopped using 1N sulfuric acid and the optical density was measured at 450 nm.

[2] = system: Vit D C22-Diaminobutane-Suberoyl-KLH; assay: 10H9 hybridoma supernatant ELISA on coated plate, no competing antigen; details: Ag 0, coat 50 ng/mL
Description: as §1

[3] = Displacement assay with purified coated 10H9 and alkaline phosphatase tracer, competitor 25-hydroxyvitamin D2; details: for optical density at 405 nm: MAb coat 1 ug/mL
Description: (§2) Next, displacement experiments were conducted using purified antibody, rather than cell supernatant. In this experiment, the antibody of interest was coated directly on the microtiter plate via a two-hour incubation. Coated plates were washed and then coincubated with either 25-hydroxyvitamin D2 or 25-hydroxyvitamin D3 in the presence of alkaline phosphatase-conjugated vitamin D-C22 BSA. After 30 minutes the plates were washed and color was developed by adding the substrate p-nitrophenyl phosphate (PNPP). Optical density colored solution was measured at 405 nm.

[4] = Antibody displacement assay, 10H9 supernatant, competitor 25-hydroxyvitamin D3; details: for optical density at 450 nm: 25 OH-D3 0.4 μg/mL, coat Vit D C22-Diaminobutane-Suberoyl-KLH 50 ng/mL
Description: as §1

[5] = Displacement assay with purified coated 10H9 and alkaline phosphatase tracer, competitor 25-hydroxyvitamin D3; details: for optical density at 405 nm: MAb coat 1 ug/mL
Description: as §2

optical density at 450 nm ([1]; supernatant dilution 1:4): 0.323
optical density at 450 nm ([1]; supernatant dilution 1:16): 0.154
optical density at 450 nm ([1]; supernatant dilution 1:64): 0.097
optical density at 450 nm ([1]; supernatant dilution 1:256): 0.086
optical density at 405 nm ([3]; 25OH-VIT D2 0 ng/ml): 1.277
optical density at 405 nm ([3]; 25OH-VIT D2 5 ng/ml): 1.189
optical density at 405 nm ([3]; 25OH-VIT D2 10 ng/ml): 1.007
optical density at 405 nm ([3]; 25OH-VIT D2 25 ng/ml): 0.771
optical density at 405 nm ([3]; 25OH-VIT D2 100 ng/ml): 0.106
optical density at 405 nm ([3]; 25OH-VIT D2 200 ng/ml): 0.080
optical density at 405 nm ([3]; 25OH-VIT D2 400 ng/ml): 0.069
optical density at 405 nm ([3]; 25OH-VIT D2 1000 ng/ml): 0.063
optical density at 450 nm ([4]; supernatant dilution 1:4): 0.384
optical density at 450 nm ([4]; supernatant dilution 1:16): 0.176
optical density at 450 nm ([4]; supernatant dilution 1:64): 0.105
optical density at 450 nm ([4]; supernatant dilution 1:256): 0.090
optical density at 405 nm ([5]; 25OH-VIT D3 0 ng/ml): 1.213
optical density at 405 nm ([5]; 25OH-VIT D3 5 ng/ml): 1.083
optical density at 405 nm ([5]; 25OH-VIT D3 10 ng/ml): 0.800
optical density at 405 nm ([5]; 25OH-VIT D3 25 ng/ml): 0.519
optical density at 405 nm ([5]; 25OH-VIT D3 100 ng/ml): 0.115
optical density at 405 nm ([5]; 25OH-VIT D3 200 ng/ml): 0.089
optical density at 405 nm ([5]; 25OH-VIT D3 400 ng/ml): 0.077
optical density at 405 nm ([5]; 25OH-VIT D3 1000 ng/ml): 0.069
B1: 10H9: murine monoclonal antibody from the 10H9 hybridoma, raised against vitamin D-C22 BSA; binds 25-hydroxyvitamin D2 and D3 (antibody, V domains shown)
VH: VQLLESGPELVKPGASMKISCKASGYSFTDYTMNWVKQSHGKNLEWIGLINPYNGFTIYNQKFKGKATLTVDKSSSTAYMELLSLTSEDSAVYYFIRAHYDGRVFWGQGTTLTVSS
VL: CELVMTQSPLSLPVSLGDQASVSCRSSQSLVHSNGNTYLHRYLQKPGQSPKLLIYQVSNRFSGVPDRFSGSGSGTDFTLKITRVEAEDLGVYFCSQITHFPPTFGGGTKLEIKR
modifications: Description of Unknown: 10H9 monoclonal antibody heavy chain variable region polypeptide; Description of Unknown: 10H9 monoclonal antibody light chain variable region polypeptide
disruption of antibody binding by coincubation ([1]; 10H9 supernatant, 25-hydroxyvitamin D2): disrupted in a concentration-dependent manner
optical density at 450 nm ([2]; supernatant dilution 1:4): 1.997
optical density at 450 nm ([2]; supernatant dilution 1:16): 1.244
optical density at 450 nm ([2]; supernatant dilution 1:64): 0.672
optical density at 450 nm ([2]; supernatant dilution 1:256): 0.313
disruption of 10H9 binding to vitamin D-C22 BSA by coincubation ([3]; purified antibody, 25-hydroxyvitamin D2): disrupted in a concentration-dependent manner
disruption of antibody binding by coincubation ([4]; 10H9 supernatant, 25-hydroxyvitamin D3): disrupted in a concentration-dependent manner
disruption of 10H9 binding to vitamin D-C22 BSA by coincubation ([5]; purified antibody, 25-hydroxyvitamin D3): disrupted in a concentration-dependent manner
